Data on 4 molecules can be found in publication PMC4242082, “Mechanistic determinants of the directionality and energetics of active export by a heterodimeric ABC transporter” (Nature Communications, 2014).

Ends that are not written are not given here.

Data set [1] deals with the molecule itself. Nature of the data set: AUC; sedimentation equilibrium, with ADP; 12,000, 15,000 and 22,000 r.p.m., 10 °C; 3, 11 and 33 μM protein; 20 mM Tris pH 8.0, 50 mM NaCl, 5 mM MgCl2; monomer-dimer self-association model (SedPhat); dimer to monomers.
Data set [2] deals with the molecule itself. Nature of the data set: AUC; sedimentation equilibrium, with ATP; 12,000, 15,000 and 22,000 r.p.m., 10 °C; 3, 11 and 33 μM protein; 20 mM Tris pH 8.0, 50 mM NaCl, 5 mM MgCl2; monomer-dimer self-association model (SedPhat); dimer to monomers.
The target in data set [3] is P36370. Nature of the data set: AUC; sedimentation velocity, with ATP; 33 μM protein, 40,000 r.p.m., 10 °C, 14 h; 20 mM Tris pH 8.0, 50 mM NaCl, 5 mM MgCl2; c(S) model (Sedfit).
Data set [4] addresses P36370. Nature of the data set: AUC; sedimentation velocity, with ADP; 33 μM protein, 40,000 r.p.m., 10 °C, 14 h; 20 mM Tris pH 8.0, 50 mM NaCl, 5 mM MgCl2; c(S) model (Sedfit).
Data set [5] deals with the molecule itself. Nature of the data set: AUC; sedimentation velocity, with ATP; 33 μM protein, 40,000 r.p.m., 10 °C, 14 h; 20 mM Tris pH 8.0, 50 mM NaCl, 5 mM MgCl2; c(S) model (Sedfit).
The target of data set [6] is D674A/wt TAP complex (human TAP1 D674A with wt TAP2) (human) (UniProt Q03519).
Data set [7] deals with wild-type TAP (human TAP1/TAP2 complex) (human) (UniProt Q03518).
Substrate in data set [8]: Nc1ncnc2c1ncn2[C@@H]1O[C@H](COP(=O)(O)OP(=O)(O)OP(=O)(O)O)[C@@H](O)[C@H]1O
Nature of the data set: ATP-dependent transport of RRYC(FL488)KSTEL in proteoliposomes. The class given is biochemical, Homo sapiens. As to conditions: peptide 1 μM, Mg2+, pH 7.4, 37 °C. An excerpt:
ATP-dependent transport of RRYC(FL488)KSTEL in proteoliposomes on TAP (TAP1/TAP2 complex; wt TAP) | the Michaelis–Menten kinetics for peptide transport by wt TAP and D674A/wt are equal

B1: rat TAP1-NBD Walker B mutant (D645N) (domain or fragment)
chain: SPLSGSLAPLNMKGLVKFQDVSFAYPNHPNVQVLQGLTFTLYPGKVTALVGPNGSGKSTVAALLQNLYQPTGGKVLLDGEPLVQYDHHYLHTQVAAVGQEPLLFGRSFRENIAYGLTRTPTMEEITAVAMESGAHDFISGFPQGYDTEVGETGNQLSGGQRQAVALARALIRKPRLLILDNATSALDAGNQLRVQRLLYESPEWASRTVLLITQQLSLAERAHHILFLKEGSVCEQGTHLQLMERGGCYRSMVEALAAPSD
notes: Model system for NBD homodimerisation; also called Walker B D645N; hydrolysis-deficient Walker B mutant; source: E. coli BL21(DE3), purified (Ni-NTA, Superdex200)
For B1, the Kd (commonly the equilibrium constant for the complex coming apart) turned out to be 111 µM in data set [1] and 22.4 µM in data set [2]. Besides, the 2nd/1st ratio (dimer to monomer peaks) in data set [3] turned out to be 2.61; in data set [4], 0.68. Moreover, in data set [5], the stoichiometry N (commonly the number of molecules, sites or subunits per partner or assembly) is 2.

B2: rat TAP1-NBD Walker B/D-loop double mutant (D645N/D651A) (domain or fragment)
chain: SPLSGSLAPLNMKGLVKFQDVSFAYPNHPNVQVLQGLTFTLYPGKVTALVGPNGSGKSTVAALLQNLYQPTGGKVLLDGEPLVQYDHHYLHTQVAAVGQEPLLFGRSFRENIAYGLTRTPTMEEITAVAMESGAHDFISGFPQGYDTEVGETGNQLSGGQRQAVALARALIRKPRLLILDNATSALAAGNQLRVQRLLYESPEWASRTVLLITQQLSLAERAHHILFLKEGSVCEQGTHLQLMERGGCYRSMVEALAAPSD
notes: D651A of rat TAP1 is equivalent to D674A of human TAP1; also called Walker B D645N/D-loop D651A; rat TAP1 NBD D645N/D651A; source: E. coli BL21(DE3), purified (Ni-NTA, Superdex200)
Take B2: the Kd in data set [1] stood at 164 µM; in data set [2], 170 µM. Besides, the 2nd/1st ratio (dimer to monomer peaks) in data set [3] worked out at 0.11; in data set [4] it was 0.26.

B3: Atto633-labelled peptide RRYC(AT633)KSTEL (peptide)
peptide: RRYC(Atto633)KSTEL
In data set [6], B3 returned an EC50 of lumenal peptide accumulation in proteoliposomes after 1 h at different external peptide concentrations, given as Kd of a low-affinity lumenal peptide-binding site of 10.7 µM and a lumenal peptide concentration reached in proteoliposomes at high external peptide (for example 100 μM): trans-inhibition below 16 µM. Moreover, the lumenal peptide concentration reached in proteoliposomes at high external peptide (for example 100 μM): trans-inhibition in data set [7] was below 16 µM.

B4: TAP (TAP1/TAP2 complex; wt TAP) (Homo sapiens) (protein)
chain 1: MASSRCPAPRGCRCLPGASLAWLGTVLLLLADWVLLRTALPRIFSLLVPTALPLLRVWAVGLSRWAVLWLGACGVLRATVGSKSENAGAQGWLAALKPLAAALGLALPGLALFRELISWGAPGSADSTRLLHWGSHPTAFVVSYAAALPAAALWHKLGSLWVPGGQGGSGNPVRRLLGCLGSETRRLSLFLVLVVLSSLGEMAIPFFTGRLTDWILQDGSADTFTRNLTLMSILTIASAVLEFVGDGIYNNTMGHVHSHLQGEVFGAVLRQETEFFQQNQTGNIMSRVTEDTSTLSDSLSENLSLFLWYLVRGLCLLGIMLWGSVSLTMVTLITLPLLFLLPKKVGKWYQLLEVQVRESLAKSSQVAIEALSAMPTVRSFANEEGEAQKFREKLQEIKTLNQKEAVAYAVNSWTTSISGMLLKVGILYIGGQLVTSGAVSSGNLVTFVLYQMQFTQAVEVLLSIYPRVQKAVGSSEKIFEYLDRTPRCPPSGLLTPLHLEGLVQFQDVSFAYPNRPDVLVLQGLTFTLRPGEVTALVGPNGSGKSTVAALLQNLYQPTGGQLLLDGKPLPQYEHRYLHRQVAAVGQEPQVFGRSLQENIAYGLTQKPTMEEITAAAVKSGAHSFISGLPQGYDTEVDEAGSQLSGGQRQAVALARALIRKPCVLILDDATSALDANSQLQVEQLLYESPERYSRSVLLITQHLSLVEQADHILFLEGGAIREGGTHQQLMEKKGCYWAMVQAPADAPE
chain 2: MRLPDLRPWTSLLLVDAALLWLLQGPLGTLLPQGLPGLWLEGTLRLGGLWGLLKLRGLLGFVGTLLLPLCLATPLTVSLRALVAGASRAPPARVASAPWSWLLVGYGAAGLSWSLWAVLSPPGAQEKEQDQVNNKVLMWRLLKLSRPDLPLLVAAFFFLVLAVLGETLIPHYSGRVIDILGGDFDPHAFASAIFFMCLFSFGSSLSAGCRGGCFTYTMSRINLRIREQLFSSLLRQDLGFFQETKTGELNSRLSSDTTLMSNWLPLNANVLLRSLVKVVGLYGFMLSISPRLTLLSLLHMPFTIAAEKVYNTRHQEVLREIQDAVARAGQVVREAVGGLQTVRSFGAEEHEVCRYKEALEQCRQLYWRRDLERALYLLVRRVLHLGVQMLMLSCGLQQMQDGELTQGSLLSFMIYQESVGSYVQTLVYIYGDMLSNVGAAEKVFSYMDRQPNLPSPGTLAPTTLQGVVKFQDVSFAYPNRPDRPVLKGLTFTLRPGEVTALVGPNGSGKSTVAALLQNLYQPTGGQVLLDEKPISQYEHCYLHSQVVSVGQEPVLFSGSVRNNIAYGLQSCEDDKVMAAAQAAHADDFIQEMEHGIYTDVGEKGSQLAAGQKQRLAIARALVRDPRVLILDEATSALDVQCEQALQDWNSRGDRTVLVIAHRLQTVQRAHQILVLQEGKLQKLAQL
notes: full-length heterodimer from Sf9 insect cells (baculovirus), purified and reconstituted in proteoliposomes, or in membranes
As to B4, in data set [8], the Km (usually the concentration of substrate that gives half-maximal velocity) is 99 ± 24 µM.
